Measurements taken from PMC4655838, “Versatility in phospho-dependent molecular recognition of the XRCC1 and XRCC4 DNA-damage scaffolds by aprataxin-family FHA domains” (DNA Repair, 2015).
Changes are numbered by the printed parent chain. Square brackets hold non-standard residues; d marks the D form. Ends that are not written are not given here. pT = C[C@@H](OP(=O)(O)O)[C@H](N)C(=O)O; pS = N[C@@H](COP(=O)(O)O)C(=O)O

Tests used:
[1] = target: T1, APLF FHA domain (residues 1-106) (UniProt Q8IW19 1-106); assay: ITC; peptide injected (30 x 10 ul) into FHA domain in the cell; 22 °C; 50 mM HEPES pH 7.5, 150 mM NaCl, 5 mM β-mercaptoethanol; XRCC1 peptides 1 mM into 100 μM protein, XRCC4 peptides 300 μM into 30 μM protein; single-site binding model; conditions: both partners purified
T1 construct: Cloned BamHI/XhoI in pGEX-6P-1; also called aprataxin- and PNKP-like factor FHA domain; source: E. coli Rosetta2 (DE3), purified (glutathione resin, cleaved with rhinovirus 3C protease, Superdex 75); not shown: GST, N-terminal, cleaved
T1 sequence (looked up): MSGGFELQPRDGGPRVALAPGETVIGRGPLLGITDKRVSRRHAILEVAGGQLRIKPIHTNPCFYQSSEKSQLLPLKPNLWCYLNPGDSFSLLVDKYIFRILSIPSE

[2] = target: T2, selenomethionine-labelled APLF FHA domain L91M (residues 1-106) (UniProt Q8IW19 1-106, L91 M, selenomethionine-labelled); assay: crystal structure; selenomethionine-labelled APLF FHA L91M with peptide at 1:3; hanging drops at 18 °C, 0.1 M Tris pH 8.0, 30% PEG 3350, 0.2 M MgCl2; SAD, refined at 1.4 Å; conditions: both partners purified
T2 construct: residues 1-104 are in the final model; also called APLF L91 M; APLF/XRCC4 SeMet; source: E. coli Rosetta2 (DE3) in SelenoMet medium, purified as the wild-type protein; not shown: GST, N-terminal, cleaved
T2 sequence (looked up): T1 sequence (looked up) with L91M

B1: XRCC4 229-237 peptide phosphorylated on Thr233 (peptide)
peptide: YDESTDEES
HELM: PEPTIDE1{Y.D.E.S.[C[C@@H](OP(=O)(O)O)[C@H](N[*:1])C(=O)[*:2]].D.E.E.S.[am]}$$$$V2.0; N-terminus assumed
SMILES: C[C@@H](OP(=O)(O)O)[C@H](NC(=O)[C@H](CO)NC(=O)[C@H](CCC(=O)O)NC(=O)[C@H](CC(=O)O)NC(=O)[C@@H](N)Cc1ccc(O)cc1)C(=O)N[C@@H](CC(=O)O)C(=O)N[C@@H](CCC(=O)O)C(=O)N[C@@H](CCC(=O)O)C(=O)N[C@@H](CO)C(N)=O
notes: also called mono-phosphorylated (pT233) XRCC4; XRCC4 peptide phosphorylated solely on the threonine in the core motif; source: synthetic peptide (Dr. W. Mawby, University of Bristol), purified by HPLC
fold tighter binding than the XRCC1 pThr519 peptide [1]: ~8 fold

B2: XRCC4 229-237 peptide phosphorylated on Ser232, Thr233 and Ser237 (peptide)
peptide: YDE[pS][pT]DEE[pS]-NH2
modifications: N-terminus assumed
SMILES: C[C@@H](OP(=O)(O)O)[C@H](NC(=O)[C@H](COP(=O)(O)O)NC(=O)[C@H](CCC(=O)O)NC(=O)[C@H](CC(=O)O)NC(=O)[C@@H](N)Cc1ccc(O)cc1)C(=O)N[C@@H](CC(=O)O)C(=O)N[C@@H](CCC(=O)O)C(=O)N[C@@H](CCC(=O)O)C(=O)N[C@@H](COP(=O)(O)O)C(N)=O
notes: also called tri-phosphorylated XRCC4 peptide; triphosphorylated XRCC4; source: synthetic peptide (Dr. W. Mawby, University of Bristol), purified by HPLC
binding result [2]: binds

B3: XRCC1 515-529 peptide phosphorylated on Ser518, Thr519, Thr523 and Ser525 (peptide)
peptide: YAG[pS][pT]DEN[pT]D[pS]EEHQ-NH2
modifications: N-terminus assumed
SMILES: C[C@H](NC(=O)[C@@H](N)Cc1ccc(O)cc1)C(=O)NCC(=O)N[C@@H](COP(=O)(O)O)C(=O)N[C@H](C(=O)N[C@@H](CC(=O)O)C(=O)N[C@@H](CCC(=O)O)C(=O)N[C@@H](CC(N)=O)C(=O)N[C@H](C(=O)N[C@@H](CC(=O)O)C(=O)N[C@@H](COP(=O)(O)O)C(=O)N[C@@H](CCC(=O)O)C(=O)N[C@@H](CCC(=O)O)C(=O)N[C@@H](Cc1c[nH]cn1)C(=O)N[C@@H](CCC(N)=O)C(N)=O)[C@@H](C)OP(=O)(O)O)[C@@H](C)OP(=O)(O)O
notes: XRCC1 residues 515-529; also called tetra-phosphorylated XRCC1 peptide; source: synthetic peptide (Dr. W. Mawby, University of Bristol), purified by HPLC
stoichiometry N [1]: ~2 APLF FHA domains per peptide

B4: XRCC1 515-529 peptide phosphorylated on Ser518, Thr519 and Thr523 (peptide)
peptide: YAG[pS][pT]DEN[pT]DSEEHQ-NH2
modifications: N-terminus assumed
SMILES: C[C@H](NC(=O)[C@@H](N)Cc1ccc(O)cc1)C(=O)NCC(=O)N[C@@H](COP(=O)(O)O)C(=O)N[C@H](C(=O)N[C@@H](CC(=O)O)C(=O)N[C@@H](CCC(=O)O)C(=O)N[C@@H](CC(N)=O)C(=O)N[C@H](C(=O)N[C@@H](CC(=O)O)C(=O)N[C@@H](CO)C(=O)N[C@@H](CCC(=O)O)C(=O)N[C@@H](CCC(=O)O)C(=O)N[C@@H](Cc1c[nH]cn1)C(=O)N[C@@H](CCC(N)=O)C(N)=O)[C@@H](C)OP(=O)(O)O)[C@@H](C)OP(=O)(O)O
notes: XRCC1 residues 515-529; also called YAGpSpTDENpTDSEEHQ; tri-phosphorylated XRCC1 peptide; source: synthetic peptide (Dr. W. Mawby, University of Bristol), purified by HPLC
fold weaker binding than the triphosphorylated XRCC4 peptide [1]: 26 fold | stoichiometry N [1]: ~2 APLF FHA domains per peptide

B5: XRCC1 515-529 peptide phosphorylated on Ser518 and Thr519 (peptide)
peptide: YAGSTDENTDSEEHQ
HELM: PEPTIDE1{Y.A.G.[O=C([C@H](COP(=O)(O)O)N[*:1])[*:2]].[C[C@@H](OP(=O)(O)O)[C@H](N[*:1])C(=O)[*:2]].D.E.N.T.D.S.E.E.H.Q.[am]}$$$$V2.0; N-terminus assumed
SMILES: C[C@H](NC(=O)[C@@H](N)Cc1ccc(O)cc1)C(=O)NCC(=O)N[C@@H](COP(=O)(O)O)C(=O)N[C@H](C(=O)N[C@@H](CC(=O)O)C(=O)N[C@@H](CCC(=O)O)C(=O)N[C@@H](CC(N)=O)C(=O)N[C@H](C(=O)N[C@@H](CC(=O)O)C(=O)N[C@@H](CO)C(=O)N[C@@H](CCC(=O)O)C(=O)N[C@@H](CCC(=O)O)C(=O)N[C@@H](Cc1c[nH]cn1)C(=O)N[C@@H](CCC(N)=O)C(N)=O)[C@@H](C)O)[C@@H](C)OP(=O)(O)O
notes: XRCC1 residues 515-529; also called di-phosphorylated XRCC1 peptide; source: synthetic peptide (Dr. W. Mawby, University of Bristol), purified by HPLC
fold increase in binding over the mono-phosphorylated peptide [1]: ~3 fold
